Assay results from patent publication US20050048050A1 (CITY OF HOPE, published 2005).
Each block holds one binder with its values, some of them ahead of it.

Biological target: T1, purified human insulin-like growth factor I receptor (IGF-IR) (human, UniProt P08069 31-1367, limits assumed)
T1 construct: The natural receptor is made of alpha and beta subunits from one precursor; also called IGF-R; human IGF-1 receptor
Assay: SPR (BIAcore), IGF-IR immobilised on the chip, antibody as analyte
Description: The affinity constants of 1H7 (10⁹ M⁻¹) and αIGF-IR scFv-Fc (10⁸ M⁻¹) for IGF-IR were determined using a BIAcore instrument (BIAcore Inc., Piscataway, N.J.). Analytes, at various concentrations, were passed over IGF-IR-immobilized chips (0.3 μg/chip) at a flow rate of 5 μl/min.

T1 sequence (P08069 31-1367 limits assumed, form in doubt): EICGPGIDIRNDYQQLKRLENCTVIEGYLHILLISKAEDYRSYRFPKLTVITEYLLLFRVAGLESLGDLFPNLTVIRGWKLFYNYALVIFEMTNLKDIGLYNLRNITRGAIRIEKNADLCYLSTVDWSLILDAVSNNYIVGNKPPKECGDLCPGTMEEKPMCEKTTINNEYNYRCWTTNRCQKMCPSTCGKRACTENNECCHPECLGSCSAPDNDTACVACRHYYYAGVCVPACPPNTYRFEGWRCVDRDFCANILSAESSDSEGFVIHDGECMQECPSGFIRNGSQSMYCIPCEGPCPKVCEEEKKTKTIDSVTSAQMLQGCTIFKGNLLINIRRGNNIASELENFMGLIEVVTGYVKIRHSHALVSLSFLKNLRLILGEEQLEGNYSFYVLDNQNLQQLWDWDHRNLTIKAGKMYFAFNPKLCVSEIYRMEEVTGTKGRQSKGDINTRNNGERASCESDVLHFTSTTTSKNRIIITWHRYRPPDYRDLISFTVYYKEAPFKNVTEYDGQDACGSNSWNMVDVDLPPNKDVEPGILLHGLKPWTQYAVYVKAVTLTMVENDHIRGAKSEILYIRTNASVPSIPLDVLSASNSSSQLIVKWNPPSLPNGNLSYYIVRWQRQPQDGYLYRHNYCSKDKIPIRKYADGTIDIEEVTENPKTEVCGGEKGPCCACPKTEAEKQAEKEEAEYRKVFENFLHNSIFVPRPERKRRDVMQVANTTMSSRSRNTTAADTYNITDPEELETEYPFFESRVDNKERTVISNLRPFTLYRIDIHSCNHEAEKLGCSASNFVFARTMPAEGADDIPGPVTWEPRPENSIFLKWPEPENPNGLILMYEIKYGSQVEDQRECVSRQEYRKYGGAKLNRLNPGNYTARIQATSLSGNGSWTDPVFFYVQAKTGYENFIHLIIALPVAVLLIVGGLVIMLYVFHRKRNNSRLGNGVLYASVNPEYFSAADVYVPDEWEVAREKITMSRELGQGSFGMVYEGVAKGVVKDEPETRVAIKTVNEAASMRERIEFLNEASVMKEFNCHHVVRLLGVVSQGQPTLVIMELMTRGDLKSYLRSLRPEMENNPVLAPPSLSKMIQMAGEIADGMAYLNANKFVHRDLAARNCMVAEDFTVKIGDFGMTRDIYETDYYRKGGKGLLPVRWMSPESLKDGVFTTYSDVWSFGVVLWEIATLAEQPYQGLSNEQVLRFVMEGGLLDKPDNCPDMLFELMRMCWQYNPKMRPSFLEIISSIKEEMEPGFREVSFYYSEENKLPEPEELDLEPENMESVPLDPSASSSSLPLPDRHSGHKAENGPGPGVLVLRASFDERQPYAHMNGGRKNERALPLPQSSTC

Ka: 1e+09 M⁻¹
B1: mouse monoclonal antibody 1H7 (antibody, V domains shown)
VH: EVKVVESGGGLVKPGGSLKLSCAASGFTFSIYAMSWVRQTPEKKLEWVASISNGGTTYYPDSVKGRFTISRDNARNILYLQMNSLRSEDTAMYYCARTFYYSFPRAMDYWGQGTSVTVSS
VL: DIVMTQSHKFMSTSVGDRVNITCKASQDVNTAVAWYQQKPGQSPKLLIYWASTRHTGVPDRFTGSGSGTDFTLTISSVQAEDLTLYYCHQHYTTPYTFGGGTNLEIK
notes: Whole murine monoclonal antibody; also called 1H7 mAb

Ka: 1e+08 M⁻¹
B2: αIGF-IR scFv-Fc (chimeric single-chain antibody against human insulin-like growth factor I receptor) (Fc fusion)
chain: DIVMTQSHKFMSTSVGDRVNITCKASQDVNTAVAWYQQKPGQSPKLLIYWASTRHTGVPDRFTGSGSGTDFTLTISSVQAEDLTLYYCHQHYTTPYTFGGGTNLEIKGGGGSGGGSGGGGSGGGSEVKVVESGGGLVKPGGSLKLSCAASGFTFSIYAMSWVRQTPEKKLEWVASISNGGTTYYPDSVKGRFTISRDNARNILYLQMNSLRSEDTAMYYCARTFYYSFPRAMDYWGQGTSVTVSS
notes: Divalent antibody with an expected Mr of 120 kDa, expressed in NS0 cells and purified on protein A. The signal peptide from the mT84.66 light chain is left out; not shown: human IgG1 Fc domain (cDNA clone from Dr. J. Schlom), SalI fragment inserted into the XhoI site of pcDNA/αIGF-IR scFv
